Laboratory results published in publication PMC5967865 (eLife, 2018).

T1: human GlyT1 (Homo sapiens, UniProt P48067)
T1 construct: gene SLC6A9; Sf9 cells; LMNG/CHS; purified with Cmpd1
T1 sequence (P48067 1-706): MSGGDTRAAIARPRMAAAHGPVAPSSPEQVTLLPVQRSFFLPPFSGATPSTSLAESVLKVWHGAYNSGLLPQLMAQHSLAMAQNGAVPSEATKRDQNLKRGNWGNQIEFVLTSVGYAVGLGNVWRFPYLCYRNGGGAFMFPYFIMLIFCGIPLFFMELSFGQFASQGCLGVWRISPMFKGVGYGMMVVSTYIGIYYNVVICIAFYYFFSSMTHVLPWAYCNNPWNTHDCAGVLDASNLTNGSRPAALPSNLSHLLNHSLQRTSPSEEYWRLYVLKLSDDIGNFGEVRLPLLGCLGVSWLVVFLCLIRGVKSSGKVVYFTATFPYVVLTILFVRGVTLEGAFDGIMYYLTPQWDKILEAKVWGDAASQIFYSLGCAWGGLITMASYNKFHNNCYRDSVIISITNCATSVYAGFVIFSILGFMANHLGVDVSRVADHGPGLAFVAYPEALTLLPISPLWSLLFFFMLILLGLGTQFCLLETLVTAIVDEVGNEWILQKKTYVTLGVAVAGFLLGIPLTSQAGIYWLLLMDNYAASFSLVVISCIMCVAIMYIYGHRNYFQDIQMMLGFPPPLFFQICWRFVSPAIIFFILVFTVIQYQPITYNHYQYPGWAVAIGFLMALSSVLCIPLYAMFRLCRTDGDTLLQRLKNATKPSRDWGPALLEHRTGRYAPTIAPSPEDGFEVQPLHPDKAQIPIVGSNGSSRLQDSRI


Tests used:
GFP [GFP: P42212] = test: pull-down; nanobody or sybody displayed on ribosomes (PUREfrexSS; 10^6 mRNA of 3K1K spiked into 10^12 mRNA of the non-randomized convex sybody), pulled down with biotinylated GFP or MBP immobilized on magnetic beads; retrieved mRNA reverse transcribed and quantified by qPCR against the input mRNA
human GlyT1 = target: T1, human GlyT1; type: binding; settings: 6 nM [3H]-Org24598, labelled compound, 4°C, LMNG; citrate pH 6.4 (buffer assignment by 'respectively'); with and without sybodies
Human GlyT1 (human) [1] = target: Human GlyT1 (human) (UniProt P48067); test: SPR; Biacore T200, 18°C; biotinylated GlyT1 (about 300 RU) on SA sensor, sybody up to 2 µM as analyte; 20 mM Citrate pH 6.4, 150 mM NaCl, 0.004% LMNG; 50 µl/min; 1:1 model; single cycle for Sb_GlyT1#6; KD from kinetics or from equilibrium as the column says
Human GlyT1 (human) [2] = target: Human GlyT1 (human) (UniProt P48067)
Human ENT1(2–456) [3] = target: T2, Human ENT1(2–456) (Homo sapiens, UniProt Q99808, biotin on the Avi-tag (in vivo, co-transfected E. coli BirA); glycosylation reduced with PNGaseF and Endo-alpha-N-acetylgalactosaminidase); test: SPR; Biacore T200, 18°C; biotinylated ENT1 (about 1000 RU) on SA sensor, sybody up to 475 nM as analyte; 20 mM HEPES pH 7.5, 150 mM NaCl, 0.001% LMNG, 1.25 µM DOPS; 50 µl/min; 1:1 model; settings: both partners purified
T2 construct: human equilibrative nucleoside transporter 1 (ENT1, SLC29A1), residues 2-456, called wild-type, full length protein; also called equilibrative nucleoside transporter 1; SLC29A1; source: HEK293 freestyle cells, transient transfection, purified (TALON, SEC) in LMNG with NBTI; not shown: His10, N-terminal, cleaved; GFP (enhanced), N-terminal, cleaved; Avi, N-terminal, kept
T2 sequence (Q99808 2-456): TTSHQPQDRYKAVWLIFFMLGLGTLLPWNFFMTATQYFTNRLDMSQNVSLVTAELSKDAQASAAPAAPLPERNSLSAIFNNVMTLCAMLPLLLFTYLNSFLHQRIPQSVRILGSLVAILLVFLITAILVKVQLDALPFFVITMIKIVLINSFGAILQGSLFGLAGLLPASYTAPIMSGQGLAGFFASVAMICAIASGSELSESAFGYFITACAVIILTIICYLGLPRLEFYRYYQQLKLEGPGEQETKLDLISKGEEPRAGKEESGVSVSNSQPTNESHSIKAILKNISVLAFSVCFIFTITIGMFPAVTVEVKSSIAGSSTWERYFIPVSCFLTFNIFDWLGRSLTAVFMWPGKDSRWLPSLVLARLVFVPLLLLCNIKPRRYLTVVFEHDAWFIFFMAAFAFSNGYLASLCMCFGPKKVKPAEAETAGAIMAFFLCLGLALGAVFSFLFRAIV

Human ENT1(2–456) [4] = target: T2, Human ENT1(2–456); test: cell-based or functional assay

Kd (Human GlyT1 (human) [1]) [nM]	SPA signal (fold increase) of [3H]-Org24598 binding at 19°C (Human GlyT1 (human) [2]) [fold]	ΔTm(SPA-TS): shift of the melting temperature of GlyT1, read by binding of [3H]-Org24598 (Human GlyT1 (human) [2]) [°C]	koff (Human GlyT1 (human) [1]) [s⁻¹]	kon (Human GlyT1 (human) [1]) [M⁻¹ s⁻¹]	Molecule	other results
–	–	–	–	–	3K1K nanobody (VHH)	mRNA recovery (percent of input mRNA) (GFP [GFP: P42212]): 84.6%
–	–	–	–	–	CN(CC[C@@H](Oc1ccc(C(F)(F)F)cc1)c1ccccc1)CC(=O)O [Org24598]	scintillation proximity assay (SPA-TS) with [3H]-Org24598 (human GlyT1): SPA-TS analysis using the commercially available tritiated inhibitor Org24598
154	1.1	1.7	–	–	Sb_GlyT1#3 (VHH) VHH: QVQLVESGGGLVQAGGSLRLSCAASGFPVWNNGMAWYRQAPGKEREWVAAIASRGRSTVYADSVKGRFTISRDNAKNTVYLQMNSLKPEDTAVYYCYVNVGSHYEGQGTQVTVS	–
476	1.5	2.1	–	–	Sb_GlyT1#4 (VHH) VHH: QVQLVESGGGLVQAGGSLRLSCAASGFPVYAYVMAWYRQAPGKEREWVAAIKSQGVSTYYADSVKGRFTISRDNAKNTVYLQMNSLKPEDTAVYYCYVYVGTSYTGQGTQVTVS	–
–	–	–	–	–	Sb_ENT1#1 (VHH, concave sybody; source: purified (Ni-NTA, SEC); not shown: Myc, C-terminal, kept) VHH: QVQLVESGGGLVQAGGSLRLSCAASGFPVEYNTMYWYRQAPGKEREWVATIESWGWFTWYADSVKGRFTISRDNAKNTVYLQMNSLKPEDTAVYYCEVGVGHNYAGRGTQVTVS	Kd (Human ENT1(2–456) [3]): 40 nM; koff (Human ENT1(2–456) [3]): 0.00744 s⁻¹; kon (Human ENT1(2–456) [3]): 186000 M⁻¹ s⁻¹; SPA signal (fold increase) of [3H]-NBTI binding at 30.1°C (Human ENT1(2–456) [4]): 7 fold; ΔTm(SPA-TS): shift of the apparent melting temperature of ENT1, read by binding of [3H]-NBTI (Human ENT1(2–456) [4]): 6.1 °C
307	1.2	0.9	0.0577	188000	Sb_GlyT1#1 (VHH) VHH: QVQLVESGGGLVQAGGSLRLSCAASGFPVYYSHMLWYRQAPGKEREWVAAIKSLGAKTWYADSVKGRFTISRDNAKNTVYLQMNSLKPEDTAVYYCTVGVGTNYYGQGTQVTVS	–
2520	1.1	1.5	0.0928	36800	Sb_GlyT1#2 (VHH) VHH: QVQLVESGGGLVQAGGSLRLSCAASGFPVYHRSMLWYRQAPGKEREWVAAIKSNGAGTWYADSVKGRFTISRDNAKNTVYLQMNSLKPEDTAVYYCTVGVGTNYWGQGTQVTVS	–
0.494	1.6	8.8	4.99e-05	100000	Sb_GlyT1#6 (VHH) VHH: QVQLVESGGGLVQAGGSLRLSCAASGFPVVYYEMYWYRQAPGKEREWVAAITSSGWYTHYADSVKGRFTISRDNAKNTVYLQMNSLKPEDTAVYYCNVKDWGASWKQYDYWGQGTQVTVS	–
9.18	1.8	10	0.000185	20100	Sb_GlyT1#7 (VHH) VHH: QVQLVESGGGLVQAGGSLRLSCAASGFPVYAYEMYWYRQAPGKEREWVAAISSSGTWAGYADSVKGRFTISRDNAKNTVYLQMNSLKPEDTAVYYCNVKDWGASWAYYDYWGQGTQVTVS	–
81.9	1.5	2.6	0.0372	454000	Sb_GlyT1#5 (VHH) VHH: QVQLVESGGGLVQAGGSLRLSCAASGFPVMNRWMAWYRQAPGKEREWVAAVASYGETTRYADSVKGRFTISRDNAKNTVYLQMNSLKPEDTAVYYCNVKDWGWWTRAYDYWGQGTQVTVS	–
